The values below come from patent publication EP4725970A1 (Fortvita Biologics Inc., dated 2026).

Where two headings read alike, the source gives them in different places.

For one assay, the target named is T1, human CD3E&G-His/Free (human, UniProt P07766 23-126; P09693 23-116).
T1 construct: Bought recombinant heterodimer; 'His/Free' as printed (one chain His-tagged); also called human CD3 E&G heterodimer
In words: BLI (Octet), 1:1 fit. A general note: BLI is a label-free optical method that tracks binding on a fibre tip over time.

A further assay addresses T2, cyno CD3E&G-His/Free (cynomolgus monkey, UniProt Q95LI5 22-117; Q95LI7 23-113).
T2 construct: Bought recombinant heterodimer; also called monkey CD3 E&G
T2 sequence (looked up) 1: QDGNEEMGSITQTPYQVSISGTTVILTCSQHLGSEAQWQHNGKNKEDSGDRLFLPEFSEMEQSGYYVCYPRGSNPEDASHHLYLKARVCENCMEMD
T2 sequence (looked up) 2: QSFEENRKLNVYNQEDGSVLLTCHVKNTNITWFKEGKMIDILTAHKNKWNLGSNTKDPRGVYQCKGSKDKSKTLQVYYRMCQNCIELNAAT
The assay is described as follows: BLI (Octet), 1:1 fit.

The target of a further assay is T3, Cyno BCMA-His (cynomolgus monkey, UniProt A0A2K5UD97 1-53).
T3 construct: also called Cyno BCMA (ACRO BCA-C52H7); monkey BCMA
T3 sequence (A0A2K5UD97 entry or part of it): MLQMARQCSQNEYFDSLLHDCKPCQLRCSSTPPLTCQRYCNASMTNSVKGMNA
In words: BLI (Octet), 1:1 fit.

Assay [1] deals with T4, human BCMA (full-length, on cells) (human, UniProt Q02223 1-184).
T4 sequence: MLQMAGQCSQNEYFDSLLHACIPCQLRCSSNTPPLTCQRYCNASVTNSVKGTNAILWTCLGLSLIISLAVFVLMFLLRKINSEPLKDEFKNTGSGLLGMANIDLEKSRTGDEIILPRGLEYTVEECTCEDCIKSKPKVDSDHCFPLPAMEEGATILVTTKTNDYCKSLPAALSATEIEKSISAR
The assay is described as follows: cell-based or functional assay.

Assay [2] has as its target T4, human BCMA (full-length, on cells). The assay is described as follows: cell-based or functional assay. The source holds these as a separate data set.
In assay [3] the target is T5, human CD3 (on Jurkat cells and human T cells) (human, UniProt P07766 23-207).
T5 construct: whole, on cells; the other chains of the complex on the cells are not described; also called CD3E
T5 sequence (P07766 23-207): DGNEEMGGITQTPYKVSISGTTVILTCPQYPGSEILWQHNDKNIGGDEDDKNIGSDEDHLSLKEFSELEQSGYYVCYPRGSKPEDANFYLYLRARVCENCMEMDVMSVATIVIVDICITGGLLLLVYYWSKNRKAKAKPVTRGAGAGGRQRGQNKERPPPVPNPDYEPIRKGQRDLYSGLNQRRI
The assay is described as follows: flow cytometry, Jurkat cells. (In general: A flow cytometer gives signals particle by particle.)

In assay [4] the target is T5, human CD3 (on Jurkat cells and human T …). The assay is described as follows: flow cytometry, human CD4 T cells.
Assay [5] shares this target. In words: flow cytometry, human CD8 T cells.
In assay [6] the target is T4, human BCMA (full-length, on cells). In words: flow cytometry, GS-CHO-hBCMA cells.
Assay [7] shares this target. The assay is described as follows: flow cytometry, GS-CHO-hBCMA cells. This is another data set of the same source.
Assay [8] addresses T6, cynomolgus monkey BCMA (full-length, on cells) (cynomolgus monkey, UniProt A0A2K5UD97 1-183).
T6 construct: whole, on cells; also called cynoBCMA; GS-CHO-cynoBCMA
In words: flow cytometry, GS-CHO-cynoBCMA cells.

The target in assay [9] is T4, human BCMA (full-length, on cells). The assay is described as follows: cell-based or functional assay. The source holds these as a separate data set.
For assay [10], the target named is T7, human GPRC5D (full-length, on cells) (human, UniProt Q9NZD1 1-345). The assay is described as follows: cell-based or functional assay.
T7 sequence (Q9NZD1 whole entry): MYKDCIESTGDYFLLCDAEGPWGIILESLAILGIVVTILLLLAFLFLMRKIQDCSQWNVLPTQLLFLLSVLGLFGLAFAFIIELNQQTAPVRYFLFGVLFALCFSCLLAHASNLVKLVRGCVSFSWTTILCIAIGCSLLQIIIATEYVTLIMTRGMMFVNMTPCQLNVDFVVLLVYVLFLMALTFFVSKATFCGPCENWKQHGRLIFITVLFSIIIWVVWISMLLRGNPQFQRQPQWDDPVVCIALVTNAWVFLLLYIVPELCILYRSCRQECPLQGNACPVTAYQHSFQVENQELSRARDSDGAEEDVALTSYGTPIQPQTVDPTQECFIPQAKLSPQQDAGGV
The target in assay [11] is T7, human GPRC5D (full-length, on cells). The assay is described as follows: cell-based or functional assay. This is another data set of the same source.
Assay [12] has the same target. In words: flow cytometry, GS-CHO-hGPRC5D cells.

T1 sequence (P07766 23-126, chain 1 of 2): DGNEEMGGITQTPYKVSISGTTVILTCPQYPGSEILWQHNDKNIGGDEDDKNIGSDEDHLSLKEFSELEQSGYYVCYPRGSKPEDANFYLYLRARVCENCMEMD
T1 sequence (P09693 23-116, chain 2 of 2): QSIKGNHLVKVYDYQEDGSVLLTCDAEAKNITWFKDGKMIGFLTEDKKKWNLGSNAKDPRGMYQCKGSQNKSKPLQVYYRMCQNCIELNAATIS
T6 sequence (A0A2K5UD97 entry or part of it): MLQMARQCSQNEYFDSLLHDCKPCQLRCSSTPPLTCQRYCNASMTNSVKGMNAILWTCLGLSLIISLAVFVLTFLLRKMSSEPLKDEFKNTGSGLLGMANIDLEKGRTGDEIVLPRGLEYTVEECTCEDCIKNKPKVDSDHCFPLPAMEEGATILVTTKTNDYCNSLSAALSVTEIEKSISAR

B1: REGN-BCMA/CD3 (REGN5458) (bispecific antibody)
VH: EVQLVESGGGLVQPGGSLRLSCAASGFTFSNFWMTWVRQAPGKGLEWVANMNQDGSEKYYVDSVKGRFTISRDNAKSSLYLQMNSLRAEDTAVYYCARDREYCISTSCYDDFDYWGQGTLVTVSS
VL: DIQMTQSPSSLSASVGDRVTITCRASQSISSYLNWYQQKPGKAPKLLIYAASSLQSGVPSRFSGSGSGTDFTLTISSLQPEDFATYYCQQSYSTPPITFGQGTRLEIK
chain: EVQLVESGGGLVQPGRSLRLSCAASGFTFDDYSMHWVRQAPGKGLEWVSGISWNSGSKGYADSVKGRFTISRDNAKNSLYLQMNSLRAEDTALYYCAKYGSGYGKFYHYGLDVWGQGTTVTVSS
On to B1, for which the binding result with human CD3E&G-His/Free and with cyno CD3E&G-His/Free was “no binding (tested: 100 nM)” throughout. In the assay with Cyno BCMA-His, binding was put at a Kd of 14 nM. Also, the koff (as a rule, a measure of how fast the partners let go of each other) with Cyno BCMA-His was found to be 0.0108 s⁻¹. In the assay with Cyno BCMA-His, the on-rate (kon) – broadly, the rate constant with which the complex forms – was determined as 767000 M⁻¹ s⁻¹. Further, in [1], the “EC50 of PBMC killing of H929 ko GPRC5D cells (LDH)” value is 0.0375 nM. Further, in [2], the “EC50 of PBMC killing of H929 ko GPRC5D cells, donor1” value amounted to 0.0395 nM. Further, the EC50 (commonly the concentration at which the effect is half-maximal) in assay [3] is 12 nM; in assay [4], 33.4 nM; in [5], 31.9 nM; in [6], 76.1 nM; in assay [7] it was 59.2 nM; in assay [8] it was 1320 nM.

B2: B3-7F5.3 (24) (7F5.3_sp34.24_497_triFab) (trispecific antibody, human IgG1, kappa, lambda, L234A L235A)
heavy 1: not shown
light 1: not shown
heavy 2: not shown
light 2: DIQMTQSPSSLSASVGDRVTITCRASQSISRYLNWYQDKPGKAPKLLIYAASSLQSGVPSRFSGSGSGTDFTLTISSLQPEDFATYYCQQKYFDITFGGGTKVEIKRTVAAPSVFIFPPSDECLKSGTASVVCLLNNFYPREAKVQWKVDNALQSGNSQESVTEQDSKDSTYSLSSTLTLSKADYEKHKVYACEVTHQGLSSPVTKSFNRGES
light 3: QAVVTQEPSLTVSPGGTVTLTCRSSTGAVTTSNYANWVQKKPGQAPRGLIGGTNKRAPGVPARFSGSLLGDKAALTLLGAQPEDEAEYYCALWYSNLWVFGQGTKLTVLGQPKAAPSVTLFPPSSEELQANKATLVCLISDFYPGAVTVAWKADSSPVKAGVETTTPSKQSNNKYAASSYLSLTPEQWKSHRSYSCQVTHEGSTVEKTVAPTECS
notes: also called Exemplary antibody No. 6
For the molecule B2, the Kd (commonly the concentration at which binding is half-saturated) in the assay with human CD3E&G-His/Free amounted to 14.4 nM; in the assay with cyno CD3E&G-His/Free, 10.2 nM. In addition, the results for the koff in the assay with human CD3E&G-His/Free and with cyno CD3E&G-His/Free were 0.00874 s⁻¹ and 0.00675 s⁻¹, respectively. Moreover, the kon in the assay with human CD3E&G-His/Free came to 608000 M⁻¹ s⁻¹; in the assay with cyno CD3E&G-His/Free, 662000 M⁻¹ s⁻¹. For the same molecule, in assay [9], the “EC50 of PBMC killing of H929 ko GPRC5D cells (LDH)” value worked out at 0.0751 nM. For the same molecule, the EC50 is 43.4 nM in assay [4], 42.4 nM in [5], 7.36 nM in [7] and 9.69 nM in assay [8].

B3: JNJ-BCMA/CD3 (Teclistamab) (bispecific antibody, human IgG4 S228P, lambda, F234A L235A)
heavy 1: not shown
light 1: SYVLTQPPSVSVAPGQTARITCGGNNIGSKSVHWYQQPPGQAPVVVVYDDSDRPSGIPERFSGSNSGNTATLTISRVEAGDEAVYYCQVWDSSSDHVVFGGGTKLTVLGQPKAAPSVTLFPPSSEELQANKATLVCLISDFYPGAVTVAWKGDSSPVKAGVETTTPSKQSNNKYAASSYLSLTPEQWKSHRSYSCQVTHEGSTVEKTVAPTECS
heavy 2: EVQLVESGGGLVQPGGSLRLSCAASGFTFNTYAMNWVRQAPGKGLEWVARIRSKYNNYATYYAASVKGRFTISRDDSKNSLYLQMNSLKTEDTAVYYCARHGNFGNSYVSWFAYWGQGTLVTVSSASTKGPSVFPLAPCSRSTSESTAALGCLVKDYFPEPVTVSWNSGALTSGVHTFPAVLQSSGLYSLSSVVTVPSSSLGTKTYTCNVDHKPSNTKVDKRVESKYGPPCPPCPAPEAAGGPSVFLFPPKPKDTLMISRTPEVTCVVVDVSQEDPEVQFNWYVDGVEVHNAKTKPREEQFNSTYRVVSVLTVLHQDWLNGKEYKCKVSNKGLPSSIEKTISKAKGQPREPQVYTLPPSQEEMTKNQVSLTCLVKGFYPSDIAVEWESNGQPENNYKTTPPVLDSDGSFLLYSKLTVDKSRWQEGNVFSCSVMHEALHNHYTQKSLSLSLGK
light 2: QTVVTQEPSLTVSPGGTVTLTCRSSTGAVTTSNYANWVQQKPGQAPRGLIGGTNKRAPGTPARFSGSLLGGKAALTLSGVQPEDEAEYYCALWYSNLWVFGGGTKLTVLGQPKAAPSVTLFPPSSEELQANKATLVCLISDFYPGAVTVAWKADSSPVKAGVETTTPSKQSNNKYAASSYLSLTPEQWKSHRSYSCQVTHEGSTVEKTVAPTECS
notes: also called J&J BCMAxCD3
B3: the Kd came out at 15.4 nM with human CD3E&G-His/Free, 12.1 nM in the assay with cyno CD3E&G-His/Free and 17.5 nM with Cyno BCMA-His. Besides, the koff with human CD3E&G-His/Free is 0.0057 s⁻¹; with cyno CD3E&G-His/Free, 0.00481 s⁻¹; in the assay with Cyno BCMA-His it was 0.0338 s⁻¹. In addition, the kon worked out at 370000 M⁻¹ s⁻¹ in the assay with human CD3E&G-His/Free, 396000 M⁻¹ s⁻¹ with cyno CD3E&G-His/Free and 1.94e+06 M⁻¹ s⁻¹ with Cyno BCMA-His. The EC50 in assay [3] was 6.39 nM; in [4] it was 25.9 nM; in assay [5] it was 24.6 nM; in assay [8], 829 nM.

B4: B5 (87) (hz5E12_sp34.87_497_triFab) (trispecific antibody, human IgG1, kappa, lambda, L234A L235A)
heavy 1: not shown
light 1: DIVMTQSPDSLAVSLGERATINCRASESVDSYGITFMNWYQQKPGQPPKLLIYAASNQGSGVPDRFSGSGSGTDFTLTISSLQAEDVAVYYCQQSKEVPWTFGQGTKLEIKRTVAAPSVFIFPPSDEQLKSGTASVVCLLNNFYPREAKVQWKVDNALQSGNSQESVTEQDSKDSTYSLSSTLTLSKADYEKHKVYACEVTHQGLSSPVTKSFNRGEC
heavy 2: not shown
light 2: QAVVTQEPSLTVSPGGTVTLTCRSSTGAVTTSNYANWVQKKPGQAPRGLIGGTNKRAPGVPARFSGSLLGDKAALTLLGAQPEDEAEYYCALWYSNLWVFGQGTKLTVLGQPKAAPSVTLFPPSSEELQANKATLVCLISDFYPGAVTVAWKADSSPVKAGVETTTPSKQSNNKYAASSYLSLTPEQWKSHRSYSCQVTHEGSTVEKTVAPTECS
light 3: DIQMTQSPSSLSASVGDRVTITCRASQSISRYLNWYQDKPGKAPKLLIYAASSLQSGVPSRFSGSGSGTDFTLTISSLQPEDFATYYCQQKYFDITFGGGTKVEIKRTVAAPSVFIFPPSDECLKSGTASVVCLLNNFYPREAKVQWKVDNALQSGNSQESVTEQDSKDSTYSLSSTLTLSKADYEKHKVYACEVTHQGLSSPVTKSFNRGES
notes: also called Exemplary antibody No. 3
With B4, the “EC50 of PBMC killing of H929 ko GPRC5D cells (LDH)” value in assay [1] was 0.182 nM. Besides, the “EC50 of PBMC killing of H929 ko BCMA cells (LDH)” value in assay [10] was determined as 0.0105 nM. Further, the binding result in assay [6] is “no binding”.

B5: B3b (87) (497(GLS)_sp34.87_5E12_triFab) (trispecific antibody, human IgG1, kappa, lambda, L234A L235A)
heavy 1: not shown
light 1: not shown
heavy 2: not shown
light 2: DIVMTQSPDSLAVSLGERATINCRASESVDSYGITFMNWYQDKPGQPPKLLIYAASNQGSGVPDRFSGSGSGTDFTLTISSLQAEDVAVYYCQQSKEVPWTFGQGTKLEIKRTVAAPSVFIFPPSDECLKSGTASVVCLLNNFYPREAKVQWKVDNALQSGNSQESVTEQDSKDSTYSLSSTLTLSKADYEKHKVYACEVTHQGLSSPVTKSFNRGES
light 3: QAVVTQEPSLTVSPGGTVTLTCRSSTGAVTTSNYANWVQKKPGQAPRGLIGGTNKRAPGVPARFSGSLLGDKAALTLLGAQPEDEAEYYCALWYSNLWVFGQGTKLTVLGQPKAAPSVTLFPPSSEELQANKATLVCLISDFYPGAVTVAWKADSSPVKAGVETTTPSKQSNNKYAASSYLSLTPEQWKSHRSYSCQVTHEGSTVEKTVAPTECS
notes: also called Exemplary antibody No. 4
B5: the “EC50 of PBMC killing of H929 ko GPRC5D cells, donor1” value in assay [2] is 0.14 nM. Also, the “EC50 of PBMC killing of H929 ko BCMA cells, donor1” value in [11] came out at 0.879 nM. The molecule further registered an EC50 in [12] of 95.9 nM.
